Assays:
[1] = target: T1, S. aureus SpsB signal peptidase (Staphylococcus aureus) (UniProt P0A070); experiment: cell-based or functional assay
T1 sequence: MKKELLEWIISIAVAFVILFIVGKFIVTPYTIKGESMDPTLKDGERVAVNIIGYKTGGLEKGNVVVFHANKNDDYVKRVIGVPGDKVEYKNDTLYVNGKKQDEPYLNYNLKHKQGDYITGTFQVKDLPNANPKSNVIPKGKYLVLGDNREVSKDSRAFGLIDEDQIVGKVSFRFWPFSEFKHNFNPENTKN

[2] = target: T2, Decanoyl-Lys(Flu)-Thr-Pro-Thr-Ala-Lys-Ala-Ala-Ser-Lys-Lys(TAMRA)-Asp-Asp-OH, prep-hplc peak 23C
T2 chain: KTPTAKAASKKDD

[3] = target: T3, Decanoyl-Lys(Flu)-Thr-Pro-Thr-Ala-Lys-Ala-Ala-Ser-Lys-Lys(Bio-X)-Asp-Asp-OH
T3 chain: KTPTAKAASKKDD

[4] = target: T4, Decanoyl-Leu-Thr-Pro-Lys(Bio-X)-Ala-Lys-Ala-Ala-Ser-Lys-Lys(Flu)-Asp-Asp-OH
T4 chain: LTPKAKAASKKDD

[5] = target: T5, Decanoyl-Lys(TAMRA)-Thr-Pro-Thr-Ala-Lys-Ala-Ala-Ser-Lys-Lys(Flu)-Asp-Asp-OH, prep-hplc peak 24C
T5 chain: KTPTAKAASKKDD

[6] = target: T6, Decanoyl-Lys(TAMRA)-Thr-Pro-Thr-Ala-Lys-Ala-Ala-Ser-Lys-Lys(Flu)-Asp-Asp-OH, prep-hplc peak 24D
T6 chain: KTPTAKAASKKDD

[7] = target: T7, Decanoyl-Lys(Bio-X)-Thr-Pro-Thr-Ala-Lys-Ala-Ala-Ser-Lys-Ile-Asp-Asp-Gly-Lys(Flu)-Asp-OH
T7 chain: KTPTAKAASKIDDGKD

[8] = target: T8, Decanoyl-Leu-Thr-Pro-Lys(Bio-X)-Ala-Lys-Ala-Ala-Ser-Lys-Ile-Asp-Asp-Gly-Lys(Flu)-Asp-OH
T8 chain: LTPKAKAASKIDDGKD

Decanoyl-Lys(TAMRA)-Thr-Pro-Thr-Ala-Lys-Ala-Ala-Ser-Lys-Lys(Flu)-Asp-Asp-OH, prep-hplc peak 24D (peptide)
signal change (fluorescence quench assay) [1]: > 10 fold

Decanoyl-Lys(TAMRA)-Thr-Pro-Thr-Ala-Lys-Ala-Ala-Ser-Lys-Lys(Flu)-Asp-Asp-OH, prep-hplc peak 24C (peptide)
signal change (fluorescence quench assay) [1]: > 10 fold

Decanoyl-Leu-Thr-Pro-Lys(Bio-X)-Ala-Lys-Ala-Ala-Ser-Lys-Ile-Asp-Asp-Gly-Lys(Flu)-Asp-OH (peptide)
signal change (fluorescence polarisation assay, developed with avidin) [1]: > 150 mP

Decanoyl-Leu-Thr-Pro-Lys(Bio-X)-Ala-Lys-Ala-Ala-Ser-Lys-Lys(Flu)-Asp-Asp-OH (peptide)
signal change (fluorescence polarisation assay, developed with avidin) [1]: > 150 mP

Decanoyl-Lys(Bio-X)-Thr-Pro-Thr-Ala-Lys-Ala-Ala-Ser-Lys-Ile-Asp-Asp-Gly-Lys(Flu)-Asp-OH (peptide)
signal change (fluorescence polarisation assay, developed with avidin) [1]: > 150 mP

Decanoyl-Lys(Flu)-Thr-Pro-Thr-Ala-Lys-Ala-Ala-Ser-Lys-Lys(Bio-X)-Asp-Asp-OH (peptide)
signal change (fluorescence polarisation assay, developed with avidin) [1]: > 150 mP

B1: S. aureus SpsB signal peptidase (protein)
chain: T1 sequence
catalytic efficiency kcat/Km (fluorescence quench assay) [2]: kcat/Km >/=5000 M^-1 sec^-1 | catalytic efficiency kcat/Km (fluorescence polarisation assay) [3]: kcat/Km >/=8000 M^-1 sec^-1 | catalytic efficiency kcat/Km (fluorescence polarisation assay) [4]: kcat/Km >/=8000 M^-1 sec^-1 | kcat/Km (fluorescence correlation spectroscopy assay) [4]: kcat/Km=6800 M^-1s^-1 | catalytic efficiency kcat/Km (fluorescence quench assay) [5]: kcat/Km >/=5000 M^-1 sec^-1 | catalytic efficiency kcat/Km (fluorescence quench assay) [6]: kcat/Km >/=5000 M^-1 sec^-1 | catalytic efficiency kcat/Km (fluorescence polarisation assay) [7]: kcat/Km >/=8000 M^-1 sec^-1 | catalytic efficiency kcat/Km (fluorescence polarisation assay) [8]: kcat/Km >/=8000 M^-1 sec^-1
